Data taken from doi:10.1101/2021.03.16.435520.
“And” between values parts separate entries of the source, which are not always exact repeats. Equal values may be shown once.

Tests used:
[1] = target: IRE1α kinase-endoribonuclease module, fully phosphorylated (IRE1-KR-3P) (human) (UniProt O75460); assay: cross-linking
[2] = target: IRE1α kinase-endoribonuclease module, unphosphorylated (IRE1-KR-0P) (human) (UniProt O75460); assay: cross-linking

Row | Substance | stoichiometry N [1] | stoichiometry N [2]
1 | IRE1α kinase-endoribonuclease module, fully phosphorylated (IRE1-KR-3P) (from UniProt O75460 547-977) (domain or fragment) | 2 and 4 and 6 | –
2 | IRE1α kinase-endoribonuclease module, unphosphorylated (IRE1-KR-0P) (from UniProt O75460 547-977) (domain or fragment) | – | 2
